Reference: patent US20030186258

Experiments:
[1] = biological target: T1, Z-L-tyrosine-L-lysine-L-arginine-p-nitroanilide
T1 chain: YKR

[2] = biological target: fusion protein (peptide portion)-(Lys-Arg)-(h-GH), P01241
fusion protein (peptide portion)-(Lys-Arg)-(h-GH), P01241, sequence (P01241 whole entry, looked up, the tested form may be a part): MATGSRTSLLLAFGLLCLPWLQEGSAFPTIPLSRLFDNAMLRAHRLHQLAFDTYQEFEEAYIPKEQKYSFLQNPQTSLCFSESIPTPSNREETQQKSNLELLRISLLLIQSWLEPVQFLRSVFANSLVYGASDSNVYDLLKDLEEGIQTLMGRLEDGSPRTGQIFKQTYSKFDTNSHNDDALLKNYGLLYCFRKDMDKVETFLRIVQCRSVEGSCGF

| Protein | KM [1] | kcat [1] | kcat/KM (µM^-1 × min^-1) [1] | specific activity [1] | reaction yield of hydrolysis (RP-HPLC) [2] | specificity of the hydrolysis (NH2-terminal sequence of the reaction product) [2] |
| --- | --- | --- | --- | --- | --- | --- |
| ss-Kex1-C600 (soluble secreted Kex1 endoprotease of Kluyveromyces lactis truncated at amino acid 600) (protein) LPIGDSSMEQIQNARILFNISDPLFDQQWHLINPNYPGNDVNVTGLWKENITGYGVVAALVDDGLDYENEDLKDNFCVEGSWDFNDNNPLPKPRLKDDYHGTRCAGEIAAFRNDICGVGVAYNSKVSGIRILSGQITAEDEAASLIYGLDVNDIYSCSWGPSDDGKTMQAPDTLVKKAIIKGVTEGRDAKGALYVFASGNGGMFGDSCNFDGYTNSIFSITVGAIDWKGLHPPYSESCSAVMVVTYSSGSGNYIKTTDLDEKCSNTHGGTSAAAPLAAGIYTLVLEANPNLTWRDVQYLSILSSEEINPHDGKWQDTAMGKRYSHTYGFGKLDAYNIVHMAKSWINVNPQGWLYLPTIVEKQSISNSDEVIESTVSVSAEEFKQNNLKRLEHVTVTVDIDAPYRGHVLVDLISPDGVTSTLATARRLDKNRYGFQNWTFMSVAHWGSSGVGSWKLKVKSTHDNEIVTLKSWRLKMFGETIDAKKAKVISYGNDKEDAE | 61.4 µM | 3070 s⁻¹ | 3000 | a specific activity of approximately 100 U/mg | a reaction yield higher than 95% | gave the expected sequence for h-GH |
| ss-Kex2-C613 (soluble secreted Kex2 endoprotease of Saccharomyces cerevisiae truncated at amino acid 613) (protein) APPMDSSLLPVKEAEDKLSINDPLFERQWHLVNPSFPGSDINVLDLWYNNITGAGVVAAIVDDGLDYENEDLKDNFCAEGSWDFNDNTNLPKPRLSDDYHGTRCAGEIAAKKGNNFCGVGVGYNAKISGIRILSGDITTEDEAASLIYGLDVNDIYSCSWGPADDGRHLQGPSDLVKKALVKGVTEGRDSKGAIYVFASGNGGTRGDNCNYDGYTNSIYSITIGAIDHKDLHPPYSEGCSAVMAVTYSSGSGEYIHSSDINGRCSNSHGGTSAAAPLAAGVYTLLLEANPNLTWRDVQYLSILSAVGLEKNADGDWRDSAMGKKYSHRYGFGKIDAHKLIEMSKTWENVNAQTWFYLPTLYVSQSTNSTEETLESVITISEKSLQDANFKRIEHVTVTVDIDTEIRGTTTVDLISPAGIISNLGVVRPRDVSSEGFKDWTFMSVAHWGENGVGDWKIKVKTTENGHRIDFHSWRLKLFGESIDSSKTETFVFGNDKEEVE | 56.8 µM | 2280 s⁻¹ | 12400 | – | – | – |
